For this experiment, the target named is human IL-6 (human) (UniProt P05231). Nature of the experiment: cell-based or functional assay.
human IL-6 (human), sequence (P05231 30-212 limits assumed): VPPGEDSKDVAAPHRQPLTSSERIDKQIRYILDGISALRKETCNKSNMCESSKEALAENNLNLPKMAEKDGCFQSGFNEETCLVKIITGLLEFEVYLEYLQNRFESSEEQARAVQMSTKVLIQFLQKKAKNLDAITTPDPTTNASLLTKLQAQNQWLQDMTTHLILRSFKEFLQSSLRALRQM

B1: BE8 (mouse monoclonal anti-IL6 neutralizing antibody) (antibody, from another filing, V domains shown)
VH: QVTLKESGPGILKPSQTLSLTCSFSGFSLSTSGMGVGWIRQPSGKGLEWLAHIWWDDDKYYNPSLKSQLTISKDTSRNQVFLKITSVDTADTATYYCARSYDDYLYYALDYWGQGTSVTVSS
VL: DIVMTQSPATLSVTPGDRVSLSCRASQSISDYLHWYQQKSHESPRLLIKSVSQSISGIPSRFSGSGSGSDFTLSINSVEPEDVGVYYCQNGHSFPLTFGAGTKLELK
As to B1, the inhibition of growth of XG6 cells in 40 pM IL-6, IC50 was 3 nM and the inhibition of growth of XG7 cells in 40 pM IL-6, IC50 was 6 nM.

The values above are taken from US20230183379A1.
